For data set [1], the target named is FUS RRM (UniProt P35637 285-371). Description: NMR; 30 C; NMR/ITC: 10 mM NaPO4 pH 7.0, 50 mM L-Arg, 50 mM L-Glu, 5 mM DTT (TCEP for ITC); NMR 313 K (FUS 30 C), ITC 27 C; single-molecule: 50% nuclear extract, 3.2 mM MgCl2, 50 mM K-glutamate, 20 mM HEPES pH 7.5, 1.5 mM ATP, 30 C. The note with it: protein: recombinant; hairpin.
Data set [2] addresses GB1-SRSF1ΔRS (UniProt Q07955 1-197, del198-248). The data set can be described thus: ITC; 27 C; NMR buffer with TCEP; NMR/ITC: 10 mM NaPO4 pH 7.0, 50 mM L-Arg, 50 mM L-Glu, 5 mM DTT (TCEP for ITC); NMR 313 K (FUS 30 C), ITC 27 C; single-molecule: 50% nuclear extract, 3.2 mM MgCl2, 50 mM K-glutamate, 20 mM HEPES pH 7.5, 1.5 mM ATP, 30 C. The note with it: protein: recombinant; hairpin. In general terms: ITC needs no label: the signal is the heat of the interaction.

Chain of FUS RRM (P35637 285-371): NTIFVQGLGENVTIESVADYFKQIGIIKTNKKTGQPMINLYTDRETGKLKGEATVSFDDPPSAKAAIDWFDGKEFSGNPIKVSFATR
Chain of GB1-SRSF1ΔRS (Q07955 1-197, stated change not applied): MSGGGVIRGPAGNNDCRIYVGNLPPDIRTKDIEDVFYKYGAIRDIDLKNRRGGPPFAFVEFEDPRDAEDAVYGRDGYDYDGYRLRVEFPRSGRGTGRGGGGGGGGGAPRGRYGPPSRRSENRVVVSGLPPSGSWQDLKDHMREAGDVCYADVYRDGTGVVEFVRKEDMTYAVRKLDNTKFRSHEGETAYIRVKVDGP

One may read the Kd as the equilibrium constant for the complex coming apart. Take GCGAUUUCCCCAAAUGUGGGAAACUCGC (structured_RNA) [U1 snRNA stem-loop 3 (SL3) wild type]: in data set [1], the binding result is “binds”. Also, the Kd in data set [2] turned out to be 10.9 ± 2.8 µM.
